Source: the Human Domainome abundance scans (Beltran et al. 2025)

B1: Max-interacting protein 1, residues 70 to 120; numbered along this chain, P50539 (parent)
chain: STHNELEKNRRAHLRLCLERLKVLIPLGPDCTRHTTLGLLNKAKAHIKKLE

Variants of: B1
Experiment: abundance fitness (aPCA) (normalised: wild type 0, dead -1); higher = more abundant; growth selection in yeast, the domain comes from the species named
Details: Homo sapiens

Abundance fitness: each site, then its substitutions
L27: Q -0.149 | Y -0.39 | I -0.004 | S 0.166 | G 0.18 | A -0.006 | H -0.146
L40: S -0.91 | C -0.926 | R -0.698 | D -1.13 | T -0.68 | Q -0.933 | A -0.553
L14: E -0.645 | M -0.208 | F 0.096 | R -0.447
N4: D -0.134 | M -0.289 | Y -0.547 | P -0.276 | H -0.381 | A -0.258 | G -0.223 | R -0.255 | T 0.135
E7: V -0.185 | I -0.479 | A -0.263 | F -0.273 | W -0.004
H3: Y -0.078 | M 0.152 | Q -0.023 | S 0.065 | F 0.168 | W -0.549 | D 0.023 | K 0.178
E5: T -0.006 | S -0.205 | K -0.232 | I -0.185 | Q -0.193 | Y -0.069
R11: Q -0.281 | D -0.19 | F -0.396 | V -0.509 | K 0.223 | S -0.375 | L -0.062
L39: I -0.07 | T -0.535 | H -1.15 | N -1 | M -0.194 | K -0.881 | E -0.597
A12: S 0.018 | Q -0.305 | W -0.193 | H -0.666 | T 0.124 | G -0.063 | P -0.102 | I -0.847 | D -0.438 | V -0.438
L6: H 0.519 | C -0.123 | S 0.096 | Y -0.277 | T -0.025
R20: T -0.377 | M -1 | I -1.11 | S -0.576 | Y -0.884 | F -0.971 | D -1.17
T32: I 0.139 | N -0.389 | K -0.239 | Y -0.174 | G 0.012 | M 0.546 | V 0.341 | E -0.354 | P -0.303
I25: N 0.169 | P -0.334 | S -0.39 | H -0.744 | C 0.045 | M -0.228 | V -0.062 | R -0.521 | D -0.852 | T -0.562 | Y -0.309
R33: W -0.075 | L -0.438 | K -0.117 | M -0.394 | C -0.365 | V -0.293 | G -0.257
H13: I -0.447 | P 0.064 | N 0.093 | C -0.509 | K 0.26 | A -0.515 | V -0.339 | T -0.353 | Y -0.04 | M -0.156
A43: C -0.133 | E -0.58 | G -0.583 | P -0.53 | V -0.046 | N -0.553 | W -0.303 | I -0.2
P26: H 0.017 | S 0.193 | V -0.628 | K 0.441
L18: A -0.275 | T -0.824 | S -0.455 | P -0.542 | H -1.12 | R -0.652 | C -0.61
T35: C 0.019 | Q -0.176 | A 0.213 | S 0.025
I47: F 0.216 | Y -0.137 | S -0.653 | R -0.707 | C -0.524 | N -0.702 | L 0.027
A45: K -0.057 | L -0.097 | V -0.045 | H -0.168 | G -0.447 | F -0.346
L24: F -0.277 | Q -0.569 | S -0.391 | G -0.461 | T -0.455 | V -0.193 | D -1 | W 0.244
T2: M -0.63 | Q 0.161 | V -0.663 | I -0.24 | S -0.414 | H -0.1 | W -0.836 | A -0.303 | R -0.631
S1: R -0.573 | C -0.216 | G -0.21
L16: H -0.55 | W 0.07 | M -0.001 | C -0.247 | Y -0.241 | K 0.022 | S 0.218 | I -0.133 | Q 0.16 | N -0.069
N41: P -0.44 | K 0.109 | S -0.09 | Y -0.745 | W -0.83
K42: P -0.808 | I -0.284 | D -0.992 | A -0.319 | R -0.069 | W -0.23 | G -0.421 | Y -0.684 | C -0.185
V23: M 0.064 | C 0.287 | R 0.316 | S 0.317 | N 0.313
T36: D -0.705 | L -0.106 | P -0.107 | R -0.19 | E -0.487 | H -0.176 | N -0.183
E51: F 0.332 | D -0.197 | H 0.368 | K 0.891
G28: E -0.38 | Y 0.133 | S 0.003 | R 0.122 | A -0.284
K22: A -0.903 | Q -1.02 | V -0.926 | L -0.639 | F -0.759 | H -0.651
K48: Q -0.457 | T -0.719 | W -0.31 | L -0.802 | N -0.675 | P -0.643 | Y 0.026 | R -0.288
R15: P -0.21 | E -0.476 | S -0.231 | W -0.27 | G -0.383 | D -0.749 | F -0.269 | C -0.801
G38: V -0.242 | I -0.486 | C -0.229 | F -0.584
K49: Q -0.679 | G -0.458 | C -0.62 | I -0.81 | T -0.701 | Y -0.746
H46: W 0.216 | D -0.973 | P -0.6 | Q 0.305 | I -0.26 | G 0.108
H34: K 0.39 | Q -0.028 | L 0.081 | G 0.114 | W 0.017 | R 0.264 | V 0.019 | P -0.318 | C -0.063
L21: R -1.05 | W -0.594 | I -0.144 | H -0.335 | V -0.669 | S -0.915 | A -0.547 | E -0.931 | D -1.23
P29: L 0.533 | N -0.106 | K 0.44 | I 0.506 | E -0.296 | V 0.401 | G -0.119
C31: R 0.203 | H 0.308 | D -0.136 | M -0.087 | V 0.145 | N 0.185 | K 0.334
D30: R 0.178 | E -0.134 | K 0.213 | V 0.223 | A 0.095 | M 0.118 | L 0.183
E19: T -0.532 | P -0.358 | H -0.236 | L -0.791 | W -0.782 | A -0.23
K8: C -0.278 | D -0.568 | A -0.386 | P -0.451 | H -0.205 | F -0.236 | Y -0.619 | Q -0.492 | N -0.328 | W -0.444 | R -0.353
L37: E -0.344 | T 0.042 | M -0.124 | Y -0.172
L50: A -0.572 | N -0.617 | K -0.342 | E -0.636
C17: M 0.123 | F 0.048 | R -0.729 | Q -0.635 | L 0.101 | Y -0.284 | G -0.402
R10: G -0.322 | N -0.18 | Q -0.219 | A 0.038 | L -0.076
